For test [1], the target named is T1, recombinant extracellular domain (ECD) of the human prolactin receptor (PRLR) (human, UniProt P16471 25-234).
T1 construct: also called PRLR ECD; Human PRLR; not shown: His tag
T1 sequence: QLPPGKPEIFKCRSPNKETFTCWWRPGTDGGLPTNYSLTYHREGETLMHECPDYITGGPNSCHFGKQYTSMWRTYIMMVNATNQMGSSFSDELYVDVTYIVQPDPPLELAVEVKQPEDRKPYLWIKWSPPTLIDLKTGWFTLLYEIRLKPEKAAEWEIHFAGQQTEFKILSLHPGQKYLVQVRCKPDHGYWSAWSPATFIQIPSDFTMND
The experiment in a line: Biacore 2000 SPR, antibody captured, PRLR ECD injected.

Test [2] deals with T1, recombinant extracellular domain (ECD) …. The experiment in a line: Biacore 2000 SPR, antibody captured on Protein A/G, PRLR ECD titrated, 1:1 Langmuir, 25 C. On the technique in general: SPR reads the build-up and loss of mass on a sensor chip optically.
For test [3] the target is unchanged. Put plainly: Biacore SPR, antibody captured on Protein A/G, kinetic titration of PRLR ECD, 1:1 Langmuir. Here is the method: (§1) Affinity of the chimerized and Human Engineered™ antibodies determined by Biacore analysis. Briefly, a CM5 sensor chip (Biacore) immobilized with Protein A/G (Pierce) via NHS/EDC was used to capture approximately 600 RU of antibody on the chip surface. Five concentrations of PRLR ECD beginning at 5 ug/mL (185 nM) and serially diluted at 5× dilution to 0.3 nM were injected from lowest to highest concentration in the kinetic titration injection mode, and 15 minutes of dissociation data was collected. The experiments were double-referenced, i.e. an adjacent flow cell response was subtracted automatically, and the response from a buffer injection experiment was subtracted from the experimental data set. Kinetic and derived parameters (kₐ, kd and KD) were determined by fitting to a 1:1 Langmuir model using BiaEval software customized to the kinetic titration injection mode. Affinity measurements of both chimeric and all Human Engineered™ antibodies against human and cynomolgus PRLR ECD are summarized in Table 9 and Table 10.

Test [4] addresses T2, cynomolgus PRLR ECD (cynomolgus, UniProt A0A2K5WXK1 25-234).
T2 construct: extracellular domain; also called Cyno PRLR
T2 sequence: T1 sequence with I76V, A110T, I125M, I158T, T207I
The test is described as above. As for the experimental part:
as §1

Test [5] concerns the target T1, recombinant extracellular domain (ECD) …. Put plainly: Biacore SPR, antibody covalently immobilized on CM4 chip, PRLR ECD 111 to 1.37 nM.
Test [6] addresses T2, cynomolgus PRLR ECD. The test is described as above.
The target of the next test is T3, murine PRLR ECD (mouse, UniProt Q08501 20-229).
T3 construct: extracellular domain; also called Mouse PRLR
T3 sequence (looked up): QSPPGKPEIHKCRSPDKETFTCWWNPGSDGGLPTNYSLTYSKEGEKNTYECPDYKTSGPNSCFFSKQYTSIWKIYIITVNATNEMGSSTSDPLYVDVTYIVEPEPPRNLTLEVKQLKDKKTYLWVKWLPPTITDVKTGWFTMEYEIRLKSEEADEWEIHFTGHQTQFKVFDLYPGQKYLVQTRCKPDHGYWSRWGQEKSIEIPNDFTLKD
The description is as above.

Another test has as its target T4, rat PRLR ECD (rat, UniProt P05710 20-229).
T4 construct: extracellular domain
T4 sequence (looked up): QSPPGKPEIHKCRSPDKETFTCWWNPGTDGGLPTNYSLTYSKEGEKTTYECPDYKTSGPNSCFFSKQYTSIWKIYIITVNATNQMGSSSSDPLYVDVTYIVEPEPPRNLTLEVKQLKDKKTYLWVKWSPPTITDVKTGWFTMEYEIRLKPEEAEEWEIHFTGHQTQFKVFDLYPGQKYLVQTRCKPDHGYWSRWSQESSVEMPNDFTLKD
The description is as above.

Positions count from the first letter of the chain named.

B1: XPA.06.178 (Fc fusion)
chain 1: EVQLLESGGGLVQPGGSLRLSCAASGFTFDDYGMSWVRQVPGKGLEWVSLISWDGGSTYYADSVKGRFTISRDNSKNTLYLQMNSLRAEDTAVYYCARPSGAYPTPFDNWGQGTLVTV
chain 2: not shown
As for B1, the equilibrium dissociation constant (Kd) in test [1] was determined as 20 nM.

B2: XPA.06.145 (Fc fusion)
chain 1: EVQLLESGGGLVQPGGSLRLSCAASGFTFSNYGMHWVRQAPGKGLEWVSLISWDGGRTSYTDSVKGRFTISRDNSKNTLYLQMNSLRAEDTAVYYCARGLIGDNWGQGTLVTVSS
chain 2: QSVLTQPPSASGTPGQRVTISCTGSSSNIGAGYDVHWYQQLPGTAPKLLIYDNNKRPSGVPDRFSGSKSGTSASLAISGLRSEDEADYYCAAWDDSLNGWVFGGGTKLTVL
Take B2: the Kd in test [1] was found to be 10 nM.

B3: XPA.06.141 (Fc fusion)
chain 1: EVQLLESGGGLVQPGGSLRLSCAASGFTFSNSGMHWVRQAPGKGLEWVAAISYDGSNKYYADSVKGRFTISRDNSKNTLYLQMNSLRAEDTAVYYCARADSSGTVDYWGQGTLVTV
chain 2: not shown
For the molecule B3, in test [2], the Kd came out at 8.4 nM, the dissociation rate constant (koff) is 0.00053 s⁻¹ and the association rate constant (kon) is 63000 M⁻¹ s⁻¹.

B4: XPA.06.217 (Fc fusion)
chain 1: EVQLLESGGGLVQPGGSLRLSCAASGFTFSSYAMHWVRQAPGKGLEWVSSISSSSSSIYYADSVKGRFTISRDNSKNTLYLQMNSLRAEDTAVYYCARGGGQQLGAFDIWGQGTLVTV
chain 2: not shown
For B4, the Kd in test [1] stood at 7 nM.

B5: XPA.06.131 (Fc fusion)
chain 1: EVQLLESGGGLVQPGGSLRLSCAASGFTFNSYPVHWVRQAPGKGLEWVAVISYDGNTKYYADSVKGRFTISRDNSKNTLYLQMNSLRAEDTAVYYCARDNPPFDYWGQGTLATV
chain 2: QSVLTQPPSASGTPGQRVTISCSGSSSNIGNNYVSWYQQLPGTAPKLLIYDNNNRPSGVPDRFSGSKSGTSASLAISGLRSEDEADYYCEAWDDTLNGPHVVFGGGTKLTVL
Take B5: in test [2], the dissociation constant (Kd) came to 2.1 nM, the koff came out at 7.3e-05 s⁻¹ and the association rate constant (kon) came out at 34000 M⁻¹ s⁻¹.

B6: XPA.06.158 (Fc fusion)
chain 1: EVQLLESGGGLVQPGGSLRLSCAASGFTFSSYGMHWVRQAPGKGLEWVSLISWDGYRTHYADSVKGRFTISRDNSKNTLYLQMNSLRAEDTAMYYCTTGASYHALWGQGTLVTV
chain 2: QSVLTQPPSASGTPGQRVTISCSGSRSNIGNNYVSWYQQLPGTAPKLLIYDDIKRPSGVPDRFSGSKSGTSASLAISGLRSEDEADYYCATWDDSLNGPVFGGGTKLTVL
Consider B6, for which, in test [1], the equilibrium dissociation constant (Kd) amounted to 0.7 nM. Further, in test [2], the dissociation constant (Kd) is 0.7 nM, the koff turned out to be 7.3e-05 s⁻¹ and the kon is 110000 M⁻¹ s⁻¹.

B7: XPA.06.147 (Fc fusion)
chain 1: EVQLLESGGGLVQPGGSLRLSCAASGFTFSSYGMHWVRQAPGKGLEWVSAIGGRGVSTYYADSVKGRFTISRDNSKNTLYLQMNSLRAEDTAVYYCARGSNWTHALGFDPWGQGTLVTV
chain 2: not shown
On to B7, for which, in test [2], the Kd stood at 9.8 nM, the koff is 0.0053 s⁻¹ and the on-rate constant (kon) was found to be 550000 M⁻¹ s⁻¹.

B8: he.06.642-1 (antibody, V domains shown)
VH: EVQLVESGGGLVQPGGSLRLSCAVSGFTFSSYGMSWVRQAPGKRLEWVATVSSGGTYTYYPDSVKGRFTISRDNSKNTLYLQMNSLRAEDTAMYYCARHRGNYYATYYYAMDYWGQGTLVTVSS
VL: DIVLTQSPDSLAVSLGERATINCKASKSVSTSGYTYMHWYQQKPGQPPKLLIYLASNRESGVPDRFSGSGSGTDFTLTISPVQAEDVATYYCQHSGELPPSFGQGTKLEIK
notes: Human Engineered
As to B8, the Kd in test [3] was 2 nM; in the test with cynomolgus PRLR ECD [4], 31 nM.

B9: he.06.642-2 (antibody, V domains shown)
VH: B8 VH with R44G, M93V
VL: B8 VL
notes: Human Engineered
B9: the Kd in test [5] was determined as 2.6 nM; with cynomolgus PRLR ECD [6] it was 38.9 nM; with murine PRLR ECD, 2.7 nM; in the test with rat PRLR ECD it was 1.9 nM; in test [3], 3.1 nM; in the test with cynomolgus PRLR ECD [4], 47 nM.

B10: XPA.06.167 (Fc fusion)
chain 1: EVQLLESGGGLVQPGGSLRLSCAASGFTFGSYGMHWVRQAPGKGLEWVSLISWDGGSTYYADSVKGRFTISRDNSKNTLYLQMNSLRAEDTAVYYCASSISAAATGLDYWGQGTLVTV
chain 2: not shown
As for B10, the Kd in test [1] is 4 nM.

B11: he.06.275-1 (antibody, V domains shown)
VH: DVQLQESGPGLVKPSQTLSLTCTVTGYSITSDYAWNWIRQFPGKKLEWMGYISYSGSTSYNPSLKSRITISRDTSKNQFSLQLNSVTAADTATYFCARDYGYVFDYWGQGTTLTVSS
VL: DVQITQSPSSLSASPGDRITLTCRASKNIYKYLAWYQEKPGKTNNLLIYSGSTLHSGIPSRFSGSGSGTDFTLTISSLQPEDFAMYYCQQHNDYPYTFGQGTKLEIK
notes: Human Engineered
Consider B11, for which the results for the Kd (in test [3]; with cynomolgus PRLR ECD [4]) were 0.5 nM and 1.6 nM, respectively.

B12: he.06.275-3 (antibody, V domains shown)
VH: B11 VH
VL: B11 VL with T43A, N45K
notes: Human Engineered
For B12, the Kd in test [3] was found to be 0.43 nM; with cynomolgus PRLR ECD [4], 1.3 nM.

B13: he.06.275-2 (antibody, V domains shown)
VH: B11 VH with D1Q, T25S, K45G, T93V
VL: B11 VL
notes: Human Engineered
For the molecule B13, the figures for the equilibrium dissociation constant (Kd) (in test [3]; with cynomolgus PRLR ECD [4]) were 0.61 nM and 1.9 nM, respectively.

For orientation: Kd means a measure of binding affinity in units of concentration. In general, koff refers to the first-order rate constant of dissociation. As usually defined, the kon is the rate constant with which the complex forms.

These data come from patent US20080292620A1 (Novartis, published 2008).
